The values below come from publication PMC6793440 (Journal of Experimental Botany, 2019).

This test deals with T1, His-labeled kinase domain of CEPR2 (CEPR2^KD-His, amino acids 642–977) (Arabidopsis thaliana, UniProt Q9C7T7 642-977).
T1 sequence: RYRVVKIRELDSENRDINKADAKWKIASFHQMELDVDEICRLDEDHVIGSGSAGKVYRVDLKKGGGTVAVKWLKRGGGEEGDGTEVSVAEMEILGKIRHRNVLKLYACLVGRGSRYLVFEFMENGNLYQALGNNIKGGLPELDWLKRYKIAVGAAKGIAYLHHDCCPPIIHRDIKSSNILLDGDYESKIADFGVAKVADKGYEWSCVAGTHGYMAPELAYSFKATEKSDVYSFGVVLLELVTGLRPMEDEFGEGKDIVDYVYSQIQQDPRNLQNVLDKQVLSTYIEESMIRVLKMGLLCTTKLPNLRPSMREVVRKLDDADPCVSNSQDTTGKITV
Briefly: pull-down.

B1: GST-tagged PYL2 (PYL2–GST) (receptor)
chain: MSSSPAVKGLTDEEQKTLEPVIKTYHQFEPDPTTCTSLITQRIHAPASVVWPLIRRFDNPERYKHFVKRCRLISGDGDVGSVREVTVISGLPASTSTERLEFVDDDHRVLSFRVVGGEHRLKNYKSVTSVNEFLNQDSGKVYTVVLESYTVDIPEGNTEEDTKMFVDTVVKLNLQKLGVAATSAPMHDDE
As for B1, the binding result was “binds”.

B2: GST-tagged PYL4 (PYL4–GST) (receptor)
chain: MLAVHRPSSAVSDGDSVQIPMMIASFQKRFPSLSRDSTAARFHTHEVGPNQCCSAVIQEISAPISTVWSVVRRFDNPQAYKHFLKSCSVIGGDGDNVGSLRQVHVVSGLPAASSTERLDILDDERHVISFSVVGGDHRLSNYRSVTTLHPSPISGTVVVESYVVDVPPGNTKEETCDFVDVIVRCNLQSLAKIAENTAAESKKKMSL
In the case of B2, the binding result is “binds”.
